Experimental data reported in patent publication US20210087296A1 (published 2021).

B1: Fab R3C8 (Fab, V domains shown)
VH: EVQLVESGGGLVQPGGSLRLSCAASGFNFSSSSIHWVRQAPGKGLEWVASIYPSYSYTYYADSVKGRFTISADTSKNTAYLQMNSLRAEDTAVYYCARHCLLRSRRCEMSTKTRELNVYRYAMDYWGQGTLVTVSS
VL: DIQMTQSPSSLSASVGDRVTITCRASQSVSSAVAWYQQKPGKAPKLLIYSASSLYSGVPSRFSGSRSGTDFTLTISSLQPEDFATYYCQQWPVGSSYPITFGQGTKVEIKR
B2: Fab R2C14 (Fab, V domains shown)
VH: EVQLVESGGGLVQPGGSLRLSCAASGFNIYSSSIHWVRQAPGKGLEWVASIYSYSGYTYYADSVKGRFTISADTSKNTAYLQMNSLRAEDTAVYYCARVSNRYNRSSASIAGLQLFRPYGMDYWGQGTLVTVSS
VL: DIQMTQSPSSLSASVGDRVTITCRASQSVSSAVAWYQQKPGKAPKLLIYSASSLYSGVPSRFSGSRSGTDFTLTISSLQPEDFATYYCQQSSYSLITFGQGTKVEIKR
B3: Fab 3A2 (Fab, V domains shown)
VH: EVQLVESGGGLVQPGGSLRLSCAASGFNLSSSSMHWVRQAPGKGLEWVASIYPSYSYTYYADSVKGRFTISADTSKNTAYLQMNSLRAEDTAVYYCARVKLQKDKSHQWIRNLVATPYGRYVMDYWGQGTLVTVSS
VL: DIQMTQSPSSLSASVGDRVTITCRASQSVSSAVAWYQQKPGKAPKLLIYSASSLYSGVPSRFSGSRSGTDFTLTISSLQPEDFATYYCQQYGYPITFGQGTKVEIKR

The binders below were run against matrix metalloproteinase-14 catalytic domain (cdMMP-14) (UniProt P50281 114-287, biotinylated with EZ-Link Sulfo-NHS-LC-Biotin for ELISA; amine-coupled to CM5 chip for SPR) (assay: ELISA).

Binder	EC50 [nM]
B1	> 1000
B2	> 1000
B3	4
